Reference: PMC7316157 (Journal of the American Chemical Society, 2012)
Like-named read-outs stand apart in the source and are kept apart here.

What was measured:
L-Ac-(FEFE)2-NH2 [1] = test: ITC
[2] = molecular target: the molecule itself; test: TEM + CD + IR spectroscopy of fibrils
L-Ac-(FEFE)2-NH2 [3] = molecular target: T1, L-Ac-(FEFE)2-NH2; test: ITC
T1 peptide: Ac-FEFEFEFE-NH2

[4] = molecular target: the molecule itself; test: isotope-edited IR spectroscopy

D-Ac-(FKFK)2-NH2 (peptide)
dH (L-Ac-(FEFE)2-NH2 [1]): -31.6 kcal/mol

Ac-FKFEFKFE-NH2 [L-Ac-(FKFE)2-NH2]
binding result [2]: binds

Ac-FKFKFKFK-NH2 [L-Ac-(FKFK)2-NH2]
dH (L-Ac-(FEFE)2-NH2 [3]): -40.9 ± 0.6 kcal/mol

Ac-F(1‑13C)KFEFKF(1‑13C)E-NH2 [L-Ac-(FKFE)2-NH2 doubly 1-13C-labeled at Phe 1/Phe 7]
binding result [4]: binds
